Assay results as given in the supplement of paper PMC10126150.
± gives the standard deviation of the averaged measurements.

System: ATP
Assay: switch fluorescence ratio, 500 uM ATP over buffer (Cy3 cluster intensity, sum of 5 cycles each) (fold (ratio)); higher = stronger signal-on switching upon ATP binding; sequences stand for … in TCGTCGGCAGCGTCAGATGTGTATAAGAGACAGTTTTTTTTTTTTTTTTTTTTTTTTT…TC
Conditions: aptamer strand: ATP DNA aptamer (quencher-CACCTGGGGGAGTATTGCGGAGGAAGG + anchor), 100 nM annealed; ATP concentration: 500 uM
How it was run: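 Cy3-labelled switching-strand clusters on a modified Illumina MiSeq flow-cell were annealed to 100 nM quencher-labelled ATP aptamer, imaged in selection buffer, then imaged after 15 min with 500 uM ATP at 22 °C. Five buffer/ATP cycles ran, with NaOH stripping and re-annealing between them. The fluorescence ratio is summed target-cycle over summed buffer-cycle Cy3 intensity per cluster, averaged per switch-domain sequence. Clusters outside 100-1000 RFU were excluded.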
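Also: ATP exposure 15 min at 22 °C before imaging.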

Sequence	switch fluorescence ratio
GGGTTCTGTA	0.985 ± 0.03
CTTAGGGAGA	1 ± 0.035
GTATGGCGAC	1.02 ± 0.011
CGTCGGAATG	1.091 ± 0.0045
GGGATTCCTG	0.9777 ± 0.0061
TGCGGCAATT	1.09 ± 0.012
CCATAAGAAT	1.01 ± 0.038
TGGGTGTTTG	1.03 ± 0.038
GGATTGTTGG	1.008 ± 0.0033
AGTGTTGGGT	1.02 ± 0.01
AAATGTCTAG	1.01 ± 0.037
CGAAGGGTGG	0.993 ± 0.028
AAGATGTAGT	0.994 ± 0.017
TTGTGGCAGG	1.01 ± 0.054
GAGGATTAGC	0.99 ± 0.036
TGACAGACAT	1.1 ± 0.027
GAGTATGCCC	1.02 ± 0.039
TATTAAATTT	1.031 ± 0.0051
CATTAGTTGT	1.02 ± 0.011
TTTTATCGAG	0.9893 ± 0.0093
CGGAAAAATC	1.53 ± 0.76
ATATGAAAGT	0.977 ± 0.024
CGACTTTTGT	0.967 ± 0.013
GAGGTTGGCA	0.994 ± 0.01
ATCAGCGATC	2.24 ± 0.22

Sequence	switch fluorescence ratio
GTCAGAGGGT	0.994 ± 0.013
GGGATACTAG	1.01 ± 0.02
GGATCGAAGG	0.96 ± 0.039
TTGCGGAGGA	1.01 ± 0.043
TCTAGGGACA	1.25 ± 0.063
GTATTTAGGA	0.992 ± 0.011
TAGGGTCACG	0.99721 ± 0.00082
GAATTTTAGG	0.9889 ± 0.0096
TGCGCATAGA	1.02 ± 0.018
TTTGCAGCGC	0.998 ± 0.021
GTTTTGCCTC	0.984 ± 0.01
GCCGCATTTG	1.147 ± 0.011
TGGGGTTTCA	1 ± 0.012
TATGAAGACG	1.12 ± 0.064
AGGGGGGGT	1.05 ± 0.077
TGGGGTTATG	0.984 ± 0.019
TAATAAAGTT	1.02 ± 0.018
AGTAGGGGCG	1.03 ± 0.033
GCCTATAACT	1.016 ± 0.0077
CAGGAGGAGA	1.025 ± 0.01
AATTGCTCGT	1 ± 0.016
GTTTTGCATA	1.01 ± 0.028
TTGGTTCTCT	1.01 ± 0.011
GATTTAGCTG	1 ± 0.035
GATCTTAACG	0.9912 ± 0.0096

Sequence	switch fluorescence ratio
AGGAGACTTA	0.9877 ± 0.0047
CGGGCTGGCA	1.004 ± 0.01
TAAGAGGCGG	1.01 ± 0.052
GGGGTTTTCG	1.01 ± 0.029
CGGAGAAGTT	1 ± 0.015
GAGCGCTAGG	0.9952 ± 0.0043
TCTTGGGCTG	0.9719 ± 0.0073
TCTGAACGGT	0.983 ± 0.023
TCTAATAGCC	1.03 ± 0.08
ATAATGTCGC	0.9702 ± 0.0012
ACCGCGTATG	1.03 ± 0.038
TTACCAGCTT	1.02 ± 0.063
TGGGGGAAAC	1.01 ± 0.032
ATGATTTTTT	0.985 ± 0.012
CCTAAAGTAG	1.017 ± 0.0071
GGAATGGGTC	0.9736 ± 0.0087
GGGCTTTAAT	0.992 ± 0.015
CGTGTTTGGG	0.994 ± 0.022
TTGTGCCCGG	0.9727 ± 0.009
AAATGGTTGG	0.995 ± 0.025
AGAGGCTCAG	1.08 ± 0.069
CAAGGTGGGG	1.03 ± 0.0038
TTTGATTCTT	1.004 ± 0.0033
CGGCCAGGGG	1.5 ± 0.09
CTAGGGCACA	1.07 ± 0.1

Sequence	switch fluorescence ratio
ATTTCTTGG	0.958 ± 0.031
CTATAATCTA	0.976 ± 0.041
GTTGTTCGGT	1.01 ± 0.015
GCACATTATG	0.985 ± 0.011
TAGCAACGCA	1.03 ± 0.015
TTTAATACGG	1.04 ± 0.011
TTCACAGGAG	1.12 ± 0.05
CCAGAGGGGT	1.04 ± 0.02
TATACGTCTA	1.07 ± 0.043
ATCTATCTTG	0.9777 ± 0.0012
ATTATGAATT	1.01 ± 0.021
AAAGTTTGCG	1.04 ± 0.11
ATTCCAGACG	1.01 ± 0.024
AATCAAGTCT	0.999 ± 0.011
AAGTTCGGTG	0.9695 ± 0.0027
TTGAGTTCGG	0.986 ± 0.015
TTCAGATGCG	0.993 ± 0.041
TACTGACTTG	0.989 ± 0.014
ATGTCGTGGG	1.01 ± 0.037
GGGGTGATAT	1.58 ± 0.78
TCGTAGGGTC	0.982 ± 0.047
TGTGGGTCGT	1.01 ± 0.026
AAGGGACACA	1.05 ± 0.011
GGGGGTTAGT	1.01 ± 0.014
AGGGCCTTAG	0.9733 ± 0.009
